Source: article PMC4568394, “Differentially expressed seed aging responsive heat shock protein OsHSP18.2 implicates in seed vigor, longevity and improves germination and seedling establishment under abiotic stress” (Frontiers in Plant Science, 2015)

Molecular target: the molecule itself
Experiment: SEC; Superose 6 column; purified OsHSP18.2 run with molecular weight markers, Ve/Vo against log molecular weight; homooligomer

B1: OsHSP18.2, a class II cytosolic small heat shock protein of rice (6X His tagged recombinant) (natural protein, Oryza sativa indica var. PB-1, UniProt Q5VRY1 1-166, looked up)
chain: MESAMFGLETPLMTALQHLLDIPDGEGGAAGKQGATGGPTRAYVRDARAMAATPADVKDLPGAYAFVVDMPGLKSSDIKVQVEEERLLVISGERRRGGGEEEKEESCKYLRMERRMGKFMRKFVLPDNADVDKISAVCQDGVLTVTVEKLPPPEPKKPKTIEVKVA
notes: OsHSP18.2, class II heat shock protein, Oryza sativa indica var; complete ORF / CDS, 166 aa, predicted 18.2 kDa; the indica PB-1 clone may differ from it; pET23b usually adds a C-terminal His6 tag; copies: 12
- stoichiometry N: ~12 subunits
